Experimental findings from patent publication US20240417484A1, “ANTIGEN-BINDING POLYPEPTIDES AGAINST CD73” (UNIVERSITÄTSKLINIKUM HAMBURG-EPPENDORF, priority 2021, published 2024) are described below.

Assay [1] deals with T1, human CD73 on cells (CD73-transfected HEK cells; native on PBMCs; OCI-AML3 cells) (human, UniProt P21589 27-549).
T1 construct: also called NT5E; gene ID 4907
T1 sequence: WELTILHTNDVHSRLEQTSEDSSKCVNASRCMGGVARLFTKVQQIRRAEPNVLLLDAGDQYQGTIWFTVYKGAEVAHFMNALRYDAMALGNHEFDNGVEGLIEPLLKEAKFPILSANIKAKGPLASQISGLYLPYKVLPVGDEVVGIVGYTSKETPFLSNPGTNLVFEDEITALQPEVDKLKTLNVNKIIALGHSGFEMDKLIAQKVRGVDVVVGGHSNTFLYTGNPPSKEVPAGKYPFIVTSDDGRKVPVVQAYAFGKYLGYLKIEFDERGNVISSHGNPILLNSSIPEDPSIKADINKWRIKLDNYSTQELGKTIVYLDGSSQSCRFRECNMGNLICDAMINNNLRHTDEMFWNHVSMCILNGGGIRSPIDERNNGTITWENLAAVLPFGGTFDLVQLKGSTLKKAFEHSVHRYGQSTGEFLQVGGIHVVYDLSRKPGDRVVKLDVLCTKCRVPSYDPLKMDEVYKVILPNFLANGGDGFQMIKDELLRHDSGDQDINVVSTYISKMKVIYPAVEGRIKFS
Description: flow cytometry, human CD73-expressing cells; competitor: human IgG hcAb SB141. As for the experimental part: (§1) The binding specificities of the purified hcAbs were determined by flow cytometry using HEK cells transiently co-transfected with expression vectors for GFP and either mouse CD73, human CD73 or a control protein (CD39). 1×10⁶ cells were incubated with 10 μl of the Nb-rbIgG hcAb containing HEK-6E cell supernatants for 30 min at 4° C. […] The cells were resuspended in PBS and analyzed by flow cytometry on FACS Canto or FACS Celesta (BD Biosciences, Heidelberg). Data evaluation was conducted using the software FlowJo (Treestar, Stanford, US).
(§2) To evaluate the epitopes on the CD73 protein recognized by different VHHs, representative rabbit IgG hcAbs were binned against a set of human IgG hcAbs, and bound hcAbs were detected with a PE-conjugated anti-rabbit IgG secondary antibody. Cells were pre-incubated with excess human IgG hcAbs for […] at RT to block specific epitopes before addition of rabbit IgG hcAbs as detectors and further incubation for 15 min at RT. Cells were washed, and bound antibodies were detected with PE-conjugated anti-rabbit IgG polyclonal antibody. Cells were washed and analyzed by flow cytometry on a BD-FACS Canto. Data were analyzed using the FlowJo software (Treestar). Lack of blockade by a non-binding control human IgG hcAb served as negative control (unblocked), and blockade of binding with the same VHH carrying human IgG hcAb as the rabbit IgG hcAb used for detection served as positive controls for blocking. Values for blocking were determined by comparing the mean fluorescence intensities (MFIs) of PE staining of transfected cells for unblocked vs blocked rabbit hcAbs using the formula: inhibition (%)=100−(MFI (blocked)/MFI MFI(unblocked)*100). The values were rounded to whole percentages.

Assay [2] has as its target T1, human CD73 on cells (CD73-transfected …). Description: flow cytometry, human CD73-expressing cells; competitor: human IgG hcAb SB96. The protocol:
as §1, §2
For orientation: A flow cytometer gives signals particle by particle.

Assay [3] addresses T2, recombinant human CD73 ectodomain (aa 27-549) with C-terminal His6x tag (human, UniProt P21589 27-549).
T2 construct: also called soluble recombinant human CD73; soluble human CD73
T2 sequence: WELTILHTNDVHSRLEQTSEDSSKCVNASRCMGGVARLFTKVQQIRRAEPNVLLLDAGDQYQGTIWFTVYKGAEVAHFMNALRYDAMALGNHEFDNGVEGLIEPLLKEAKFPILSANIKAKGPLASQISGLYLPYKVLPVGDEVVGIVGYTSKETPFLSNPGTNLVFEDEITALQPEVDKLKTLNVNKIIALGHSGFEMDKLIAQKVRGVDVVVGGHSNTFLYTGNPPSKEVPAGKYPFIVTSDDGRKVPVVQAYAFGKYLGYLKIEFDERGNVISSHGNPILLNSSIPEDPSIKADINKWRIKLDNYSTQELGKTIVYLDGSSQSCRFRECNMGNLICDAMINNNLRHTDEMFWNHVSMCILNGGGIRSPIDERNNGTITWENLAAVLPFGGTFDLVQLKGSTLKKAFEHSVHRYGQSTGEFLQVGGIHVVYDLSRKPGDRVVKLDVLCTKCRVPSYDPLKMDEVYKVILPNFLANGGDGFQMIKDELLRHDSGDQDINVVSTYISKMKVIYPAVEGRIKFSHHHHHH
Description: BLI (Octet), immobilized Nb-rbIgG hcAb, soluble human CD73 as analyte. As for the experimental part:
The binding off-rate constants of bivalent hcAbs to human and mouse CD73 protein were determined by […] kinetic analysis on Octet RED96 (ForteBio). Immobilization of rabbit IgG hcAbs on the protein A-biosensor surface was done in HEK-6E cell supernatant, and regeneration of analytes was done with 100 mM Glycin pH=2.5. Recombinant mouse or human CD73 ectodomain was used as analytes and tested at a saturating dose of 200 ng/μl. Sensorgrams were fitted using least square regression in association than dissociation Model in Prism8 (Graphpad).

For assay [4], the target named is T1, human CD73 on cells (CD73-transfected …). Description: flow cytometry, human CD73-expressing cells; competitor: human IgG hcAb SB139. The protocol:
as §1, §2

The target is the same in assay [5]. Description: flow cytometry, human CD73-expressing cells; competitor: IPH5301. As for the experimental part: as §1, §2
Assay [6] has the same target. Description: flow cytometry, human CD73-expressing cells; competitor: human IgG hcAb SB121. As for the experimental part:
as §1, §2

Assay [7] deals with T3, mouse CD73 on transfected HEK cells (mouse, UniProt Q61503 29-551).
T3 construct: whole, on cells; also called murine CD73; gene ID 23959
T3 sequence (looked up): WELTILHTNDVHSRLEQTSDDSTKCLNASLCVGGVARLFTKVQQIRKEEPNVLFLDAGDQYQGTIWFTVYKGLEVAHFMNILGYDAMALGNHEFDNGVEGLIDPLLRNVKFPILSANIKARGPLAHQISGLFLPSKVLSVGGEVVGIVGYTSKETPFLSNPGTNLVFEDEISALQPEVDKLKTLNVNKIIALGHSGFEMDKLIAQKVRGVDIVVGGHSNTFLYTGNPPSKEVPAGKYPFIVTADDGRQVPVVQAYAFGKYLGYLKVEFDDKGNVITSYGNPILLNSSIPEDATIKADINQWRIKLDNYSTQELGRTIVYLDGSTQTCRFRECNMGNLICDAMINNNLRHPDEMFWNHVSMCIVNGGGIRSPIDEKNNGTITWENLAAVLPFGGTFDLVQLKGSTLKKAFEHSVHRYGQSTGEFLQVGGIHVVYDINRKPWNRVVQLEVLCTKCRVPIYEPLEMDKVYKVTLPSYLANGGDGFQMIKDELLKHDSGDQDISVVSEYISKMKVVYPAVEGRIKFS
Description: specificity column, binding to human (h) and mouse (m) CD73. As for the experimental part:
as §1

The target of assay [8] is T1, human CD73 on cells (CD73-transfected …). Description: flow cytometry, human CD73-expressing cells; competitor: human IgG hcAb SB143. As for the experimental part:
as §1, §2

The target is the same in assay [9]. Description: flow cytometry, human CD73-expressing cells; competitor: human IgG hcAb SB116. The protocol: as §1, §2
For assay [10] the target is unchanged. Description: flow cytometry, human CD73-expressing cells; competitor: MEDI9447. The protocol: as §1, §2

B1: SB116 rabbit IgG hcAb (Fc fusion)
heavy: QVKLQESGGGRVQTGGSLRLSCAASGISFSITTMYWYRQAPGEQRQLVALITDRGNTYYVDSVKGRFTISRDDSKNTVYLQMNDLKPEDTAVYFCNSIPGNDWGQGTQVTVSS
notes: also called SB116-rbFc; dimeric SB116 Fc construct; not shown: hinge and Fc-domains of rabbit IgG
Turning to B1, the “percent inhibition of binding” value in assay [1] worked out at 47%; in assay [2], 100%; in [4], 2%; in assay [5], 94%; in [6], 6%; in assay [8], 65%. In addition, the “percent inhibition of binding” value in [9] was found to be 72%; in assay [10], 97%. Moreover, the koff (usually the rate constant with which the complex falls apart) in [3] was 0.00017 s⁻¹. Moreover, in assay [7], the binding result is reported as “binds”.

B2: SB141 rabbit IgG hcAb (Fc fusion)
heavy: QVQLVESGGGLVQPGGSLRLSCAASGFTFINYHMSWLRQAPGKGLEWVSEIHSRGDITSYTNSVKGRFTISRDNAKNTLYLQMNSLKFDDTAVYYCARSRDLFNEGEYDYWGRGTQVTVSS
notes: not shown: hinge and Fc-domains of rabbit IgG
As for B2, the “percent inhibition of binding” value in [1] was 84%; in assay [2] it was 13%; in assay [4], -7%; in assay [5] it was 40%; in assay [6] it was -1%; in [8] it was 66%. Besides, the “percent inhibition of binding” value is 16% in assay [9] and 26% in assay [10]. Moreover, in assay [3], the koff was 0.00045 s⁻¹.

B3: SB96 rabbit IgG hcAb (Fc fusion)
heavy: DVQLQASGGGLVQPGGSLRLSCTASGFTLDYLSIGWFRQVPGKEREGVSCINSSGGSTNYADSLKGRLTISRDNAKNTVYLQMNSLKPEDTAVYYCAAHKYYYCSNKVEVFDYWGQGTPVTVSS
notes: VHH fused upstream of hinge and Fc of rabbit IgG; also called Nb-rbIgG hcAb SB96; not shown: hinge and Fc-domains of rabbit IgG
Turning to B3, the “percent inhibition of binding” value in assay [1] was 17%; in assay [2], 100%; in assay [4] it was -25%; in assay [5], 90%; in assay [6], -29%; in assay [8] it was 70%. The “percent inhibition of binding” value in assay [9] was 73%; in [10], 92%. For the same molecule, the koff in [3] amounted to 3.9e-05 s⁻¹. Besides, the binding result in assay [7] is listed as “binds”.

B4: SB143 rabbit IgG hcAb (Fc fusion)
heavy: QVQLVESGGGLVQAGGSLRLSCAASGRTFSRSTMGWFRQAPGKERVFVAAIRWIGGTTTYGDSVKGRFTISVDNAKNTLYLQMNSLKPEDTAVYYCAATAGGPYYLGGRDILYDYWGQGTQVTVSS
notes: as for B2
As to B4, the “percent inhibition of binding” value in assay [1] was 35%; in assay [2], 100%; in assay [4], 16%; in [5] it was 99%; in assay [6], 13%; in assay [8] it was 91%. Besides, the “percent inhibition of binding” value came out at 97% in [9] and 98% in assay [10]. Besides, the koff in assay [3] is 0.0013 s⁻¹.

B5: SB144 rabbit IgG hcAb (Fc fusion)
heavy: QVQLVESGGGLVQAGGSLRLSCAASGRTFSGSTMGWFRQAPGKERAFVAAIRWIGGTAKYGDSVKGRFTISIDNAKNTLYLQMNSLKPEDTAVYYCAATAGGPDYLGGRDIVYDYWGQGTQVTVSS
notes: as for B2
On to B5, for which, in assay [3], the koff was 0.00023 s⁻¹. In [7], the binding result is recorded as “binds”.

B6: SB121 rabbit IgG hcAb (Fc fusion)
heavy: QVQLQESGGGLVQAGGSLRLSCAASGSIGSIIAMGWYRQGPGKQRELVARMFTDDGSTNYDDSVKGRFTISRDSAGTTVYLQMNSLKPEDTAVYYCNAQRRWNAYWGPGTQVTVSS
notes: as for B2
For the molecule B6, the “percent inhibition of binding” value in [1] was 77%; in assay [2] it was 53%; in assay [4] it was 0%; in [5], 77%; in assay [6] it was 69%; in assay [8] it was 85%. In addition, the “percent inhibition of binding” value in [9] is 75%; in [10], 74%. Besides, the koff in assay [3] stood at 0.022 s⁻¹. Besides, the binding result in assay [7] was “binds”.
